Patent publication US6191113A, “Peptide for inhibiting growth of smooth muscle cells” (Juridical Foundation The Chemo-Sero-Therapeutic Research …, priority 1995, dated 2001)

Assays:
smooth muscle cells = assay: Cellular toxicity with Cytotox 96 kit; type: cell-based, human; settings: Cytotox 96 kit (Promega)
[1] = tested on: Vascular smooth muscle cells from human aorta; assay: Growth inhibition of smooth muscle cells by full-length TFPI or TFPI lacking the C-terminal region (cell count, DME); type: cell-based; settings: 50 μg/ml in DME, counted nine days after plating, 3 wells, Student's t-test
Procedure: Vascular smooth muscle cells from human aorta (purchased from Kurabo K.K.) were used and subjected to passage culture with Dulbecco modified Eagle medium (hereinafter referred to as "DME") supplemented with 10% fetal calf serum. The smooth muscle cells with six passages were used in the following experiment.
The smooth muscle cells suspended in DME were plated on a 48 well culture plate (manufactured by Iwaki Glass K.K.) at a cell density of 5,000 cells/well and incubated in CO2 incubator at 37° C. Two days after plating, the culture medium was exchanged with DME containing 50 μg/ml of full-length TFPI or 50 μg/ml of TFPI lacking the C-terminal region or with DME alone as a control and culture was continued in CO2 incubator at 37° C. while the culture medium was exchanged with a fresh medium on every 2 days. The culture medium was used at 0.3 ml/well. Nine days after plating, the cells attached to the plate were detached by treatment with a trypsin/EDTA solution and then a cell number per well was counted with a hemocytometer. FIG. 1 is a graph showing a mean cell number as well as a standard deviation for three wells in each group.

## full-length TFPI: intact human tissue factor pathway inhibitor purified from culture supernatant of Chinese hamster ovary cell line
Smooth muscle cells
  cellular toxicity: did not exhibit cellular toxicity
[1]
  activity to inhibit growth of smooth muscle cells (cell number per well vs control): significantly decreased cell number
